A short description of this data set: protein stability index of a GFP-peptide fusion (GPS, HEK-293T) (PSI 1-6); higher = more stable. To be noted: c terminus: a fixed tail appended.

± gives the standard deviation.
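Also: 24-mer peptide tiles fused after GFP, lentivirally expressed, FACS-sorted into six equal bins by GFP/DsRed ratio, decoded by Illumina sequencing, PSI is the read-weighted mean bin number.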

Take DGEGAGPGEQGGGKLVLSSLPKRL [ESRRA]: the protein stability index amounted to 4.94 ± 0.14 (treatment: DMSO) and 4.68 ± 0.15 (treatment: MLN4924 1 uM, 8 h).

In the case of WVTFQVLLYTSLPDFCHKFLPGYV [DHCR7], the protein stability index reads like this: (treatment: DMSO) 3.4 ± 0.055; (treatment: MLN4924 1 uM, 8 h) 3.01 ± 0.91. Turning to GPFDLMSRRVIAANNRILAERIAK [IMPA1], the protein stability index is 2.54 ± 0.39 (treatment: DMSO) and 3.46 ± 0.59 (treatment: MLN4924 1 uM, 8 h). AVEWARNIPFFPDLQITDQVALLR [NR2F2] came in with a protein stability index (treatment: DMSO) of 2.64 ± 0.2 and a protein stability index (treatment: MLN4924 1 uM, 8 h) of 2.79 ± 0.22. As to LVATNAHLDHYYQEELPALLKALV [FCHSD1], the protein stability index (treatment: DMSO) was determined as 2.24 ± 0.23 and the protein stability index (treatment: MLN4924 1 uM, 8 h) amounted to 2.19 ± 0.36. Consider FGSRSLYSLGGVRSLNVASGSGKS [KRT71], for which the protein stability index by setting is: (treatment: DMSO) 2.35 ± 0.77; (treatment: MLN4924 1 uM, 8 h) 3.01 ± 0.82. On to SGHALRILIVDWDVHHGNGTQHMF [HDAC6], for which the protein stability index is, setting by setting: (treatment: DMSO) 2.74 ± 0.44; (treatment: MLN4924 1 uM, 8 h) 3.02 ± 0.75.

For RCGKFLQDGLPPTWRDFRTLEAFH [MED27], the protein stability index is, setting by setting: (treatment: DMSO) 2.17 ± 0.33; (treatment: MLN4924 1 uM, 8 h) 2.12 ± 0.18. DDSCLNNDIPHSIPLEQGSSCNGP [FAN1]: the protein stability index runs as follows: (treatment: DMSO) 5.17 ± 0.19; (treatment: MLN4924 1 uM, 8 h) 5.09 ± 0.1. CYDVYSPDKEEQLPFGPFNGTAWT [PKD2L1]: the protein stability index worked out at 2.75 ± 0.14 (treatment: DMSO) and 2.59 ± 0.12 (treatment: MLN4924 1 uM, 8 h). Turning to QEGWIHHLARHAVACFLTRGDLWI [CRY1], the protein stability index runs as follows: (treatment: DMSO) 3.05 ± 0.48; (treatment: MLN4924 1 uM, 8 h) 2.89 ± 0.44. QQPPQQQPSQQQQPPPQEEPGTPS [KLHL14] showed a protein stability index (treatment: DMSO) of 5.67 ± 0.13 and a protein stability index (treatment: MLN4924 1 uM, 8 h) of 5.61 ± 0.4. In the case of MSSENCFVAENSSLHPESGQENDA [CD69], the protein stability index is, setting by setting: (treatment: DMSO) 5.71 ± 0.19; (treatment: MLN4924 1 uM, 8 h) 5.54 ± 0.096. In the case of KEAFDTIQEQKVVLEENGEKNQVQ [SASS6], the protein stability index by setting is: (treatment: DMSO) 5.49 ± 0.34; (treatment: MLN4924 1 uM, 8 h) 5.71 ± 0.11. GDVLHAHLDIWKSAAWMKERTSPG [SPDEF]: the protein stability index is, setting by setting: (treatment: DMSO) 2.92 ± 0.48; (treatment: MLN4924 1 uM, 8 h) 3.06 ± 0.46. On the same counts, the results for GAVAPMDFTTAAEDQPINLCDKLP [NOL4L] are 4.7 ± 0.1 and 4.77 ± 0.34. On the same counts, the results for ELSRSRKLYGQRERVWALAQEKAA [FCHSD1] are 3.04 ± 0.33 and 3.47 ± 0.22. QYRWDMMHRLGEPQARMREENMER [BEX1]: the protein stability index reads like this: (treatment: DMSO) 4.1 ± 0.37; (treatment: MLN4924 1 uM, 8 h) 4.23 ± 0.16. Turning to AERLGVTFFEVSPLCNFNITESFT [RAB40B], the protein stability index is, setting by setting: (treatment: DMSO) 2.13 ± 0.15; (treatment: MLN4924 1 uM, 8 h) 2.22 ± 0.16. Taken in the same sequence, the figures for NHLDPFGHIILNSMHKYQPRLHIV [TBX5] were 2.31 ± 0.23 and 2.08 ± 0.52. Taken in the same sequence, the figures for VVAEAQTRVSQLGLQVEGLRRRLE [LRRC45] were 3.71 ± 0.4 and 3.82 ± 0.51. As for RLGELFNPYYDPLQWKSSHFERRD [CHGB], the protein stability index by setting is: (treatment: DMSO) 2.45 ± 0.28; (treatment: MLN4924 1 uM, 8 h) 2.64 ± 0.24.

For the sequence ILREFEELHRRLDEEQQVLLSRLE [TRIM39], the protein stability index is 3.43 ± 0.3 (treatment: DMSO) and 3.63 ± 0.12 (treatment: MLN4924 1 uM, 8 h). Sequence LSHAGQKATAAFSNVGTAISKKFG [TPD52L1] displayed a protein stability index (treatment: DMSO) of 3.73 ± 0.23 and a protein stability index (treatment: MLN4924 1 uM, 8 h) of 3.66 ± 0.21. Taken in the same sequence, the figures for YRGTLKRQPAFDTFDGSLFAVFPS [ETS2] were 2.31 ± 0.42 and 2.08 ± 0.14. On the same counts, the results for CSYTDLLPQDEGGGGYSSVRYSDC [KCNA4] are 2.67 ± 0.27 and 2.68 ± 0.24. Taken in the same sequence, the figures for AKPEVLSIQWPGKRSSRRVQRHNS [NECAB1] were 4.23 ± 0.2 and 4.37 ± 0.21.

Consider IMPDGTIVTTVTTVQSRPRIDGKL [C2CD2L], for which the protein stability index came to 3.31 ± 0.16 (treatment: DMSO) and 3.29 ± 0.39 (treatment: MLN4924 1 uM, 8 h). Take GRSNAPITAPTEVEVMDETNCQKV [CSNK1G3]: the protein stability index turned out to be 5.55 ± 0.15 (treatment: DMSO) and 5.59 ± 0.13 (treatment: MLN4924 1 uM, 8 h). On the same counts, the results for STLPSLREEEEQVRAHAPRGNAPP [KCNG1] are 4.43 ± 0.23 and 4.91 ± 0.35. Take EADSQEQGHPQTGCECEDGPDGQE [GAGE1]: the protein stability index runs as follows: (treatment: DMSO) 5.57 ± 0.28; (treatment: MLN4924 1 uM, 8 h) 5.57 ± 0.15. Consider SRSVEDDKEGHLVCRIGDWLQERY [CLK3], for which the protein stability index is 3.41 ± 0.23 (treatment: DMSO) and 3.45 ± 0.2 (treatment: MLN4924 1 uM, 8 h). Regarding LIKAGADIELGCSTPLMEAAQEGH [ANKRD17], the protein stability index is, setting by setting: (treatment: DMSO) 4.21 ± 0.57; (treatment: MLN4924 1 uM, 8 h) 4.14 ± 0.35. For the sequence LELGHWLYQTELVENECYQVFLDR [TOR1AIP2], the protein stability index is, setting by setting: (treatment: DMSO) 2.38 ± 0.038; (treatment: MLN4924 1 uM, 8 h) 2.26 ± 0.32.

Under “treatment: DMSO”, YADFERFSKVLEEAAAAEEGLREL [DAPK3] came in with a protein stability index of 2.46 ± 0.18.

On to VAPATWSAGVPPSAPLQGAVPPTS [SNAP91], for which the protein stability index is, setting by setting: (treatment: DMSO) 4.38 ± 0.25; (treatment: MLN4924 1 uM, 8 h) 4.39 ± 0.29.

As for ALAVCLSFFYPVLFVLFMFFGMAF [SOAT1], the protein stability index is, setting by setting: (treatment: DMSO) 2.84 ± 0.46; (treatment: MLN4924 1 uM, 8 h) 2.94 ± 0.75. As to LVQKDQHSFELDEKALASILLQDH [ATL3], the protein stability index is 3.43 ± 0.35 (treatment: DMSO) and 3.38 ± 0.28 (treatment: MLN4924 1 uM, 8 h). With KQLLSNKELILDKVYTHPKWNTQT [ZC2HC1C], the protein stability index was determined as 2.79 ± 0.14 (treatment: DMSO) and 3.15 ± 0.23 (treatment: MLN4924 1 uM, 8 h). Taken in the same sequence, the figures for HTPSDTGVSFQAISSMADFWDFAQ [PKD2L1] were 2.85 ± 0.36 and 3.01 ± 0.35.

Consider VKTGEDGSNLDDAKGLAESLELPK [FANCE], for which the protein stability index reads like this: (treatment: DMSO) 5.44 ± 0.18; (treatment: MLN4924 1 uM, 8 h) 5.49 ± 0.14. Turning to EERASLAGNRNSMVIHIPEEPRPS [KCNK9], the protein stability index runs as follows: (treatment: DMSO) 4.82 ± 0.13; (treatment: MLN4924 1 uM, 8 h) 4.94 ± 0.38. On the same counts, the results for SMISMGLFSIAPLIYGSMEMFPAA [JAGN1] are 3.08 ± 0.29 and 3.23 ± 0.32. With YYIPLVELVPHPETAPTTVDRTHA [CRYL1], the protein stability index is, setting by setting: (treatment: DMSO) 3.06 ± 0.28; (treatment: MLN4924 1 uM, 8 h) 3.1 ± 0.26. Take KLKNTVTIQQEKLLAEKEEKLQKE [SASS6]: the protein stability index came to 5.1 ± 0.46 (treatment: DMSO) and 5.2 ± 0.31 (treatment: MLN4924 1 uM, 8 h). Consider QAPPADFIPAHVAFDKKVLKFDAY [EFHC1], for which the protein stability index stood at 3.01 ± 0.38 (treatment: DMSO) and 2.98 ± 0.28 (treatment: MLN4924 1 uM, 8 h).

In the case of VDIGMMKEFILTDEEVQRKREMIL [VDR], the protein stability index (treatment: DMSO) was 3.24 ± 0.19 and the protein stability index (treatment: MLN4924 1 uM, 8 h) came out at 3.24 ± 0.19. For ERDIEIGFLPWLMNEVEKTMEYSM [RSPH3], the protein stability index came out at 2.41 ± 0.46 (treatment: DMSO) and 2.42 ± 0.18 (treatment: MLN4924 1 uM, 8 h). As for PETLPESSLFSVEANSSNSQKNEK [C8orf76], the protein stability index (treatment: DMSO) amounted to 5.54 ± 0.14 and the protein stability index (treatment: MLN4924 1 uM, 8 h) turned out to be 5.41 ± 0.4. KPILLQRMEGSQEVVNMAVIVPKE [WDFY2]: the protein stability index was 3.7 ± 0.09 (treatment: DMSO) and 3.54 ± 0.4 (treatment: MLN4924 1 uM, 8 h). In the case of EALAKWAEGRTGFPWIDAIMTQLR [CRY1], the protein stability index is 3 ± 0.085 (treatment: DMSO) and 2.73 ± 0.21 (treatment: MLN4924 1 uM, 8 h). On to SSDRSRDSSHERTESQLTPCIRNV [BTBD10], for which the protein stability index by setting is: (treatment: DMSO) 5.06 ± 0.065; (treatment: MLN4924 1 uM, 8 h) 5 ± 0.2. Regarding LLDAHILEWHDSLFQILSERQDMY [ZNF511], the protein stability index runs as follows: (treatment: DMSO) 2.32 ± 0.4; (treatment: MLN4924 1 uM, 8 h) 2.17 ± 0.23.

These data come from the supplement of paper PMC10567573.
